Reference: patent US20200057047

System: HA-tagged AhR

Myc-tagged PKCθ, sequence (Q04759 whole entry): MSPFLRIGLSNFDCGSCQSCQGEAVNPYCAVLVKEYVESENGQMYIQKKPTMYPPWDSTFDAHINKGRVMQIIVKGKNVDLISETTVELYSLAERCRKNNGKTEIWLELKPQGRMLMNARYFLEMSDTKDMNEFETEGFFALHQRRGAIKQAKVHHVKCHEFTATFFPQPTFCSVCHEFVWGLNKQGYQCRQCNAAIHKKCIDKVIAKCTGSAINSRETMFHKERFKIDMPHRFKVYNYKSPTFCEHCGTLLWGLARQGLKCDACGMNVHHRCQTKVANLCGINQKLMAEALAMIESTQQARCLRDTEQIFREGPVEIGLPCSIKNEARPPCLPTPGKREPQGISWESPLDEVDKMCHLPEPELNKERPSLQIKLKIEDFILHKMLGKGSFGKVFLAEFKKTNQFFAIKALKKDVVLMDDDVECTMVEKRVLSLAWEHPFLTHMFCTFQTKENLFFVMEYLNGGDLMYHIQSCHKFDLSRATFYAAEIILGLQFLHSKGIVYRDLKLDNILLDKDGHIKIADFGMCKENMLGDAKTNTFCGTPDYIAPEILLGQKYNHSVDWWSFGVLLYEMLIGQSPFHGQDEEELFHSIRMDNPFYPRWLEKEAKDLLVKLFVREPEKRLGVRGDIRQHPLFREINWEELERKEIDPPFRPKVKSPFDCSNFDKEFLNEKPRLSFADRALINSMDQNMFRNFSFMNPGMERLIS

| Substance | in vitro kinase assay: AhR Ser-36 phosphorylation |
| --- | --- |
| Myc-tagged PKCθ kinase-dead (K409W) mutant | purified kinase-dead (K409W) mutant of PKCθ did not |
| Myc-tagged PKCθ | purified PKCθ indeed phosphorylated AhR at Ser-36 |
